One data set relates to Amyloid plaques. The data set can be described thus: In vitro immunohistochemistry on Tg2576 mouse brain sections. An excerpt:
Briefly, the lead antibodies were screened on human Alzheimer's Disease brain sections and Tg2576 mouse brain sections to identify anti-Amyloid beta 1-42 antibodies that bound to Amyloid plaques in vitro.
In these experiments, human brain tissue was isolated from the frontal cortex of two individuals with severe Alzheimer's Disease (ApoE genotype 3/3, Braak stage 6 and ApoE genotype 4/3, Braak stage 5). As a control, equivalent tissue was isolated from one non-dementia individual (ApoE genotype 3/3, Braak stage 1). Mouse brain tissue was isolated from Tg2576 mice at an age of 15 months (2 mice) and 22 months (2 mice). Antibodies were tested at concentrations of 2, 5, 10 and 20 ug ml^−1.

Data set [1] deals with T1, Amyloid beta 1-42 peptide (Rattus norvegicus, UniProt P08592).
T1 construct: Measurement of free Amyloid beta 1-42 peptide in rat CSF; from tissue; host or cells: CSF and brain homogenate of Sprague-Dawley rats
T1 sequence (P08592 672-713 limits assumed): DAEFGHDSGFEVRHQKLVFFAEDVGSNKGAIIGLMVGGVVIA
The data set can be described thus: Free Amyloid beta 1-42 peptide in rat CSF (immunoprecipitation + ELISA). The conditions noted are these: for reduction of free Amyloid beta 1-42 peptide in CSF vs vehicle control: rats, 168 h after second dose. Type of data set: in vivo. Here is the method: Eight-week old male albino Harlan Sprague-Dawley rats (n=8-12) received a single dose of Abet0380-GL IgG1-TM antibody by intravenous injection with a dosing vehicle of 25 mM Histidine, 7% Sucrose, 0.02% p80 surfactant, pH 6.0 at 5 ml/kg. Dosing solutions were made just before dosing. Animals were anaesthetized at the time indicated and cerebrospinal fluid (CSF) was aspirated from the cistema magna. CSF samples were centrifuged for 10 minutes at approximately 3000× g at 4° C. within 20 minutes of sampling to remove cells or debris. Samples were then frozen on dry ice and stored at −70° C. for subsequent analysis.
Measurement of free Amyloid beta 1-42 peptide in rat CSF was conducted using immunoprecipitation to remove Abet0380-GL bound Amyloid beta 1-42 peptide, followed by analysis by a commercial ELISA kit obtained from Invitrogen. Briefly, a solution of protein A beads (Dynabeads® Protein A; Invitrogen, UK; cat: 100-02D) was added to a 96 well non-skirted plate (polypropylene 0.2 ml; VWR International, UK; cat: 10732-4828) and washed twice with TBST (50 mM TBS; Sigma, UK; cat: T6664 plus 0.1% Tween20) using a magnet (DynaMag™ 96 side; Invitrogen, UK; cat: 123.31 D) to separate the beads from the solution. Thawed rat CSF samples (40 μl) were added to each well and incubated at […] with tilt rotation for 1 hour. The beads were then pelleted using the magnet and 30 μl of immunoprecipitated CSF samples were transferred to a 96 well plate from the ELISA kit (mouse Amyloid beta (1-42) colorimetric ELISA kit; Invitrogen, UK; cat: KMB3441) with 70 μl of the Standard Diluent Buffer already added (supplemented with protease inhibitor; Roche, UK; cat: 11836153001). Calibration standard samples were added to the plate in duplicate and the plate was incubated for 2 hours at room temperature with shaking. The plate was washed 4 times with 400 µl of wash buffer, 100 μl of the detection antibody solution was added to each well and the plate was incubated for 1 hour at room temperature with shaking. Again, the plate was washed 4 times with 400 μl of wash buffer, 100 μl of the secondary antibody working solution was added to each well and the plate was incubated for 30 minutes at room temperature with shaking. Finally, the plate was washed 4 times with 400 μl of wash buffer, 100 μl of stabilized Chromogen was added to each well and the plate was incubated for 30 minutes at room temperature in the dark. To stop the reaction, 100 μl of Stop Solution was added to each well and the plate was read within 2 hours at an absorbance of 450 nm. Single CSF samples were analyzed and data analysis was performed using Prism 4 (GraphPad, USA) with one-way ANOVA on log transformed data without adjustment for multiple comparisons.
To further investigate the effect of the Abet0380-GL IgG1-TM antibody in vivo, rats were administered weekly doses of 0.25, 0.5, 1, 5 or 10 mg/kg over 14 days. Animals were euthanized 168 hours after the second dose to measure levels of free Amyloid beta 1-42 peptide in CSF as well as total Amyloid beta 1-42 or 1-40 peptides in brain tissue.
The ability of antibody Abet0144-GL to sequester amyloid beta 1-42 was investigated in a PK-PD study in normal rats. Rats were intravenously administered Abet0144-GL (10 or 40 mg/kg) or vehicle weekly for 2 weeks (on days 0 and 7), and sacrificed a week after the 2nd dose. […] Free and total amyloid beta 1-42 levels were measured using assays described above.
A general note: In an ELISA, binding on a coated surface is turned into a signal by an enzyme label.

The test system of the next data set is Amyloid beta plaques. The data set can be described thus: In vivo binding to Amyloid beta plaques in aged Tg2576 mice (immunohistochemistry). Further details: species or system mouse. The conditions noted are these: 168 hours after single i.v. dose of 10 or 30 mg/kg. Here is the method: Abet0380-GL IgG1-TM was tested for its ability to bind to Amyloid beta plaques in aged Tg2576 mice after a single peripheral dose. Animal experimentations were performed in accordance with relevant guidelines and regulations provided by the Swedish Board of Agriculture. The ethical permission was provided by an ethical board specialized in animal experimentations: the Stockholm Sodra Animal Research Ethical Board. Seventeen-month old female Tg2576 mice (n=5) received a single dose of vehicle, a positive control antibody at 30 mg/kg or the Abet0380-GL IgG1-TM antibody at 10 or 30 mg/kg by intravenous injection with a dosing vehicle of 25 mM Histidine, 7% Sucrose, 0.02% p80 surfactant, pH 6.0 at 5 mL/kg. At 168 hours after dose, animals were deeply anaesthetized and perfused with room temperature PBS followed by cold (4° C.) phosphate buffered 4% paraformaldehyde (PFA). Animals were then sacrificed by decapitation and brains were dissected and immersions fix in PFA at 4° C. for 72 hours. The fixative was exchanged to PBS containing 0.1% sodium azide and tissues were stored at 4° C. until further processed. […]
Scoring of the staining was carried out in a blinded fashion under 10× optical magnification. […] The intensity of plaque labelling was scored according to a relative intensity scale from 0 (no staining of plaques) up to 4 (intense decoration of plaques).

Entries after “also recorded” stand apart in the source; their conditions may differ.

B1: Abet0380-GL IgG1-TM: germlined Abet0380; VH SEQ ID NO: 524, VL SEQ ID NO: 533; human IgG1 triple mutant format (antibody, listed as Homo sapiens, V domains shown)
VH: EVQLLESGGGLVQPGGSLRLSCAASMGNFNYQTMWWVRQAPGKGLEWVSVIGKTNENIAYADSVKGRFTISRDNSKNTLYLQMNSLRAEDTAVYYCAREWMDHSRPYYYYGMDVWGQGTLVTVSS
VL: SYELTQPPSVSVSPGQTASITCSGHNLEDKFASWYQQKPGQSPVLVIYRDDKRPSGIPERFSASNSGHTATLTISGTQAMDEADYYCSSQDTVTRVFGGGTKLTVL
modifications: human IgG1 triple mutant constant region; /note=“Abet0380-GL”
notes: germlined Abet0380; human IgG1 triple mutant format
For B1, the “core plaques (CP) staining score” value with Amyloid plaques (Tg2576 brain sections) worked out at 4. The plaque recognition score with Amyloid plaques (Tg2576 mouse brain sections, 22 month old mice, 20 μg/ml) is given as 4. Moreover, in data set [1] (Sprague-Dawley rats, 0.25-10 mg/kg weekly over 14 days), the “effect on free Amyloid beta 1-42 in CSF” value is on record as “dose-dependent decrease; also recorded: dose-dependent reduction”. Further, the “reduction of free Amyloid beta 1-42 peptide in CSF vs vehicle control” value in data set [1] (0.25 mg/kg weekly over 14 days, not statistically significant) is given as 14%; in data set [1] (0.5 mg/kg weekly over 14 days), 47%; in data set [1] (1 mg/kg weekly over 14 days), 61%. Also, the “in vivo decoration of Amyloid beta plaques or CAA” value in the data set on Amyloid beta plaques is recorded as “did not decorate; also recorded: does not show any in vivo plaque decoration”.

The record behind these values is patent US20190262327A1, “COMBINATION OF A BACE INHIBITOR AND AN ANTIBODY OR ANTIGEN-BINDING FRAGMENT FOR THE TREATMENT OF A DISORDER ASSOCIATED WITH THE ACCUMULATION OF AMYLOID BETA” (ASTRAZENECA AB, priority 2016, published 2019).
